Source: PMC5967840
Each block holds one substance with its values, some of them ahead of it.

Columns and labels:
Assay in all cases: AUC; sedimentation velocity (60 krpm) and sedimentation equilibrium (six rotor speeds, 30-48 krpm, single ideal species model); 325 uM peptide in PI buffer (10 mM potassium phosphate pH 7.4), 1.625 mM TCEP, 25 mM NaCl, 20 °C
CC-R4-Tri3 = biological target: CC-R4-Tri3
[1] = biological target: CC-Tri3 variant with a negatively charged E4 block at the C terminus
[2] = biological target: CC-Tri3 variant with a negatively charged E4 block at the N terminus
[3] = biological target: CC-Tri3 with tetra-lysine (K4) appended to the N terminus
CC-Tri3-K4 = biological target: CC-Tri3-K4
CC-Tri3-R4 = biological target: CC-Tri3-R4

Substance: CC-R4-Tri3 (peptide)
stoichiometry N (CC-R4-Tri3): 3

Substance: CC-Tri3 variant with a negatively charged E4 block at the C terminus (peptide)
stoichiometry N [1]: 3

Substance: CC-Tri3 with tetra-lysine (K4) appended to the N terminus (peptide)
stoichiometry N [3]: 3

Substance: CC-Tri3-R4 (peptide)
stoichiometry N (CC-Tri3-R4): 3

More lines, now with the values ahead:

stoichiometry N [2]: 3
Substance: CC-Tri3 variant with a negatively charged E4 block at the N terminus (peptide)

stoichiometry N (CC-Tri3-K4): 3
Substance: CC-Tri3-K4 (peptide)
